Experimental data as given in US20230137139A1, “BIOSYNTHESIS OF CANNABINOIDS AND C[…]” (priority 2020, published 2023).

What was measured:
Type in all cases: cell-based, S. cerevisiae
[1] = tested on: CBCA, THCA, and CBDA production; CBGA residual substrate; assay: In vivo TS activity assay, Example 3 metagenomic CBCAS screen, cultures fed olivetolic acid; conditions: for Mean CBCA / Mean CBDA / Mean THCA: metagenomic CBCAS candidates in S. cerevisiae, secondary screen, quadruplicate; for Mean CBCA / Mean CBDA / Mean THCA / % CBCA / % CBDA / % THCA: fed 1 mM olivetolic acid; for Average CBGA residual substrate: olivetolic acid fed (Table 12); for % CBCA / % CBDA / % THCA: share of terminal cannabinoid product profile
Method: (§1) An assay to detect TS activity was conducted as follows: each thawed glycerol stock of candidate CBCAS transformants was stamped into a well of YEP+4% dextrose media. Samples were incubated at 30° C. in a shaking incubator for 2 days. A portion of each of the resulting cultures was stamped into a well of YEP+4% galactose+1 mM olivetolic acid (FIG. 1 Structure 6a). Samples were incubated at 20° C. and shaken in a shaking incubator for 4 days. Every 24 hours during those 4 days, 2% galactose and 1 mM olivetolic acid were spiked into the cultures. Sodium citrate buffer adjusted to pH 5.5 was added to each well at a final concentration of 100 mM. Samples were incubated at 20° C. and shaken in a shaking incubator for 2 days. A portion of each of the resulting production cultures was stamped into a well of phosphate buffered saline (PBS). Optical measurements were taken on a plate reader, with absorbance measured at 600 nm and fluorescence at 528 nm with 485 nm excitation. Samples were incubated at 30° C. in a shaking incubator for 2 days. 100% methanol was stamped into the production cultures in half-height deepwell plates. Plates were heat sealed and frozen. Samples were then thawed for 30 min and spun down at 4° C. A portion of the supernatant was stamped into half-area 96 well plates. CBCA, THCA, and CBDA production in the samples was quantified via liquid chromatography-mass spectrometry (LC-MS).
(§2) To explore whether other putative CBCASs may exist in the broader metagenome, a library of 1072 candidate CBCAS genes was designed using the A. niger CBCAS enzyme identified in Example 1 as a reference. Protein sequences were recoded in silico for expression in S. cerevisiae and synthesized in the integrative yeast expression vector shown in FIG. 5. Each candidate enzyme expression construct was transformed into an S. cerevisiae CEN.PK strain that also expressed a prenyltransferase enzyme capable of catalyzing reaction R^4 in FIG. 2. Strain t616313, expressing GFP, was included in the library screen as a negative control for enzyme activity. Strain t807925, expressing the A. niger enzyme identified in Example 1, was included in the library screen as a positive control for enzyme activity. All candidate enzymes in the library, as well as the enzyme expressed by positive control strain t807925, included an N-terminal MFalpha2 signal peptide (SEQ ID NO: 16) (with a methionine residue added at the N-terminus of the MFalpha2 signal peptide) and a C-terminal HDEL signal peptide (SEQ ID NO: 17).
The library of candidate CBCAS enzymes was assayed for activity in a primary high-throughput screen using the assay described in Example 1. Production of CBCA, THCA, and/or CBDA in the samples was quantified via LC-MS.
(§3) Based on results of the primary screen, 70 strains were carried forward to a secondary screen to confirm activity observed in the primary screen. The experimental protocol for the secondary screen was identical to the primary screen, except that additional technical replicates were included per strain, and replicate production cultures for each strain were separately fed 1 mM olivetolic acid or 1 mM divaric acid. All strains were screened in quadruplicate (FIGS. 10A-10C, Tables 10 and 11).

[2] = tested on: CBCVA, THCVA, and CBDVA production; CBGVA residual substrate; assay: In vivo TS activity assay, Example 3 metagenomic CBCAS screen, cultures fed divaric acid; conditions: for Average CBGVA residual substrate: divaric acid fed (Table 12); for Mean CBCVA / Mean CBDVA / Mean THCVA: secondary screen, S. cerevisiae, quadruplicate, LC-MS; for Mean CBCVA / Mean CBDVA / Mean THCVA / % CBCVA / % CBDVA / % THCVA: cultures fed 1 mM divaric acid; for % CBCVA / % CBDVA / % THCVA: share of terminal cannabinoid products
Method: as §1, §2, §3

[3] = tested on: CBCA, THCA, and CBDA production; assay: In vivo TS activity assay, Example 2 protein engineering of A. niger CBCAS, cultures fed olivetolic acid
Procedure, shortened: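 CBCA, THCA and CBDA were measured by LC-MS in methanol extracts of yeast cultures expressing mutant A. niger CBCAS. Cultures were induced at 20 °C with galactose and fed 1 mM olivetolic acid daily for 4 days, then buffered with 100 mM sodium citrate pH 5.5. Secondary screen: quadruplicates fed 1 mM olivetolic or divaric acid.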

[4] = tested on: CBCVA, THCVA, and CBDVA production; assay: In vivo TS activity assay, Example 2 protein engineering of A. niger CBCAS, cultures fed divaric acid; conditions: fed divaric acid
Procedure, shortened: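 Quantification by LC-MS of methanol-extracted production cultures, strains in quadruplicate. Yeast carrying mutant A. niger CBCAS (MFalpha2 N-terminal and HDEL C-terminal signal peptides) were induced 4 days at 20 °C in YEP+4% galactose fed 1 mM divaric acid, re-dosed every 24 h with 2% galactose and 1 mM divaric acid, after 2 days of dextrose preculture at 30 °C; 100 mM citrate pH 5.5 was then added for 2 more days.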

[5] = secondary screen, olivetolic acid (Table 8)
[6] = share of terminal cannabinoid product profile
[7] = S. cerevisiae strains expressing A. niger CBCAS mutants, secondary screen

Molecule	Mean CBCA [1]	Mean CBDA [1]	Mean THCA [1]	Average CBGA residual substrate [1]	% CBCA [1]	% CBDA [1]	% THCA [1]	Average CBGVA residual substrate [2]	Mean CBCVA [2]	Mean CBDVA [2]	Mean THCVA [2]	% CBCVA [2]	% CBDVA [2]	% THCVA [2]	further results
t808238 (protein) MWLSTMNGSASRRSDPVSRKIVCDGHASAHEVRTDNEAARDVPSRTAVNKERKQGSGPPGAMQRGFHAAHKPNEMVPQDGPLGRTAQLFRLAPACQSEPTRAPGQPSDLRLRQIPLATEQAARTLARMRPARFTFPYGRAAEDDCYLKKEDEGHDQSHPTSVLVGVPPFTRRCAAAETFKDTRARAPGTQPTDTTSTGASPSWTLSPLLSLSATDDSVPSKMGNGQSTPLQQCLNTVCNGRLGCVAFPSDALYQAAWVKPYNLDVPVTPIAVFKPSSTEDVAGAIKCAVASNVHVQAKSGGHSYANFGLGGQDGELMIDLANLQDFHMDKTSWQATFGAGYRLGDLDKKLQANGNRAIAHGTCPGVGIGGHATIGGLGPMSRMWGSALDHVLSVQVVTADGSIKNASESENSDLFWALRGAGASFGVITKFTVKTHPAPGSVVQYTYKISLGSQAQMAPVYAAWQALAGDPKLDRRFSTLFIAEPLGALITGTFYGTKAEYEATGIAARLPSGGTLDLKLLDWLGSLAHIAEVVGLTLGDIPTSFYGKSLALREEDMLDRTSIDGLFRYMGDADAGTLLWFVIFNSEGGAMADTPAGATAYPHRDKLIMYQSYVIGIPTLTKATRDFADGVHDRVRMGAPSANSTYAGYIDRTLSREAAQEFYWGAQLPRLREVKKAWDPKDVFHNPQSVDPAE	2934.86 µg/L	0.00 µg/L	0.00 µg/L	63815.30 µg/L	100.00%	0.00%	0.00%	9247.47 µg/L	1841.90 µg/L	0.00 µg/L	282.10 µg/L	86.72%	0.00%	13.28%	–
Strain t808200: library TS SEQ ID NO: 164, UniProt A0A3F3PQ52, Aspergillus welwitschiae (protein) MGNTTSIAGRDCLISALGGNSALAAFPNELLWTADVHEYNLNLPVTPAAITYPETAEQIAGIVKCASDYDYKVQARSGGHSFGNYGLGGADGAVVVDMKHFTQFSMDDETYEAVIGPGTTLNDVDIELYNNGKRAMAHGVCPTIKTGGHFTIGGLGPTARQWGLALDHVEEVEVVLANSSIVRASNTQNQDVFFAVKGAAANFGIVTEFKVRTEPAPGLAVQYSYTFNLGSTAEKAQFVKDWQSFISAKNLTRQFYNNMVIFDGDIILEGLFFGSKEQYDALGLEDHFAPKNPGNILVLTDWLGMVGHALEDTILKLVGNTPTWFYAKSLGFRQDTLIPSAGIDEFFEYIANHTAGTPAWFVTLSLEGGAINDIAEDATAYAHRDVLFWVQLFMVNPLGPISDTTYEFTDGLYDVLARAVPESVGHAYLGCPDPRMEDAQQKYWRTNLPRLQELKEELDPKNTFHHPQGVMPA	–	–	–	–	–	–	–	–	–	–	–	–	–	–	percentage of CBCA in product profile compared with the A. niger positive control [1]: higher percentage of CBCA
t865772 (protein, expressed in S. cerevisiae strain) MGNTTSIAGRDCLISALGGNSALAVFPNELLWTAAVHEYNLNLPVTPAAITYPETAAQIAGVVKCASDYDYKVQARSGGHSFGNYGLGGADGAVVVDMKHFTQFSMDDETYEAVIGPGTTLNDVDIELYNNGKRAMAHGVCPTIKTGGHFTIGGLGPTARQWGLALDHVEEVEVVLANSSIVRASNTQNQDVFFAVKGAAANFGIVTEFKVRTEPAPGLAVQYSYTFNLGSTAEKAQFVKDWQSFISAKNLTRQFYNNMVIFDGDIILEGLFFGSKEQYDALGLEDHFAPKNPGNILVLTDWLGMVGHALEDTILKLVGNTPTWFYAKSLGFRQDTLIPSAGIDEFFEYIANHTAGTPAWFVTLSLEGGAINDVAEDATAYAHRDVLFWVQLFMVNPVGPISDTTYEFTDGLYDVLARAVPESVGHAYLGCPDPRMEDAQQKYWRTNLPRLQELKEELDPKNTFHHPQGVMPA	–	–	–	–	–	–	–	–	–	–	–	–	–	–	Mean CBCA [3, 5]: 9992.22 µg/L; Mean CBDA [3, 5]: 3051.02 µg/L; Mean THCA [3, 5]: 622.72 µg/L; % CBCA [3, 6]: 73.12%; % CBDA [3, 6]: 22.33%; % THCA [3, 6]: 4.56%; Mean CBCVA [4, 7]: 1441.55 µg/L; Mean CBDVA [4, 7]: 0.00 µg/L; Mean THCVA [4, 7]: 702.24 µg/L; % CBCVA [4, 6]: 67.24%; % CBDVA [4, 6]: 0.00%; % THCVA [4, 6]: 32.76%
t808232 (protein) MGNTTSIAAGRDCLLSAVGGNHAHVAFQDQLLYQATAVEPYNLNIPVTPAAVTYPQSADEVAAVVKCAADYGYKVQARSGGHSFGNYGLGGEDGAIVVDMKHFDQFSMDESTYTATIGPGITLGDLDTALYNAGHRAMAHGICPTIRTGGHLTIGGLGPTARQWGLALDHVEEVEVVLANSSIVRASDTQNQEILFAVKGAAASFGIVTEFKVRTEEAPGLAVQYSFTFNLGTAAEKAKLVKDWQAFIAQEDLTWKFYSNMNIIDGQIILEGIYFGSKAEYDALGLEEKFPTSEPGTVLVLTDWLGMVGHGLEDVILRLVGNAPTWFYAKSLGFAPRALIPDSAIDDFFEYIHKNNPGTVSWFVTLSLEGGAINKVPEDATAYGHRDVLFWVQIFMINPLGPVSQTIYDFADGLYDVLAKAVPESAGHAYLGCPDPRMPNAQQAYWRNNLPRLEELKGDLDPKDIFHNPQGVMVVS	20281.01 µg/L	64.49 µg/L	1367.99 µg/L	0.00 µg/L	93.40%	0.30%	6.30%	0.00 µg/L	2379.23 µg/L	0.00 µg/L	1626.74 µg/L	59.39%	0.00%	40.61%	–
t808237 (protein) MGNTTSIAGRDCLVSALGGNAGLVAFQDQLLYQTTAVHEYNLNIPVTPAAVTYPETAEQIAAVVKCASEYDYKVQARSGGHSFGNYGLGGADGAVVVDMKHFSQFSMDDQTYEAVIGPGTTLGDVDTELYNNGKRAMAHGICPTISTGGHFTMGGLGPTARQWGLALDHVEEVEVVLANSSIVRASNTQNQEVFFAVKGAAASFGIVTEFKVRTQPAPGLAVQYSYTFNIGSSAEKAQFVKDWQSFISAKNLTRQFYTNMVIFDGDIILEGLFFGSQEQYEALGLEDRFVPKNPGNILVLTDWLGMVGHALEDTILRLVGNTPTWFYAKSLGFTPDTLIPASGIDEFFDYIENHKAGTLTWFVTLSLEGGAINDVPEDATAYGHRDVLFWVQIFMASPTGPVSSTTYDFADGLYNVLTKAVPESEGHAYLGCPDPKMADAQQKYWRQNLPRLEELKATLDPKDTFHNPQGILPA	12281.96 µg/L	37.34 µg/L	760.03 µg/L	69.20 µg/L	93.90%	0.29%	5.81%	0.00 µg/L	3599.07 µg/L	0.00 µg/L	1273.10 µg/L	73.87%	0.00%	26.13%	–
